Laboratory results published in article PMC11602132.

Target: Non-structural protein 15 (Nsp15) from SARS-CoV-2 (SARS-CoV-2)
Assay: SEC

Non-structural protein 15 (Nsp15) from SARS-CoV-2 (enzyme)
stoichiometry N: 6
